This note sets out measurements from publication PMC3624988 (Developmental cell, 2013).

In the experiment the target is Flag:Jub (full length Ajuba LIM protein Jub, 1-729aa) (Drosophila, UniProt Q9VY77 1-728). Put plainly: co-IP.
Sequence of Flag:Jub (full length Ajuba LIM protein Jub, 1-729aa) (Q9VY77 whole entry): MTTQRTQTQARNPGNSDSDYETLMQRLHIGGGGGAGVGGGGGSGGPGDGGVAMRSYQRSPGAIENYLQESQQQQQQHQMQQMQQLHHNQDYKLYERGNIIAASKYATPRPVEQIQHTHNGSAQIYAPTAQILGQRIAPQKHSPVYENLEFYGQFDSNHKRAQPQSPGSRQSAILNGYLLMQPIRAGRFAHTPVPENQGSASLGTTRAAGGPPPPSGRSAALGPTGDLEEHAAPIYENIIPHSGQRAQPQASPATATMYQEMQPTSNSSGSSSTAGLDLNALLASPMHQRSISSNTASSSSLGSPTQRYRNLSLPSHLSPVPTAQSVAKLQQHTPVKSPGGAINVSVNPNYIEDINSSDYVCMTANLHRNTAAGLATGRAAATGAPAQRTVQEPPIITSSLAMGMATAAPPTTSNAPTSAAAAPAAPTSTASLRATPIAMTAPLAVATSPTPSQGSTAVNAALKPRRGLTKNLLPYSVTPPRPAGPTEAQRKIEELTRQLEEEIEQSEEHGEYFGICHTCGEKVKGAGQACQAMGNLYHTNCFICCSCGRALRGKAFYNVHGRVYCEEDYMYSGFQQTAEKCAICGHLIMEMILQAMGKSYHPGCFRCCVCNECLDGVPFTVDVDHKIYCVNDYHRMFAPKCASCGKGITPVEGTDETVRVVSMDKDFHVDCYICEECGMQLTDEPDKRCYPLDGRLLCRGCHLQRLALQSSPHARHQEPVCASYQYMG

B1: Sav:V5 (V5-tagged Salvador) (natural protein, Drosophila, UniProt Q9VCR6 1-608, looked up)
chain: MNYLTILLCNRKPTMLSRRNKEKSQHKEGVVGKYMKKDTPPDISVINVWSDQRAKKKSLQRCASTSPSCEFHPRSSSTSRNTYSCTDSQPDYYHARRAQSQMPLQQHSHSHPHSLPHPSHPHVRSHPPLPPHQFRASSNQLSQNSSNYVNFEQIERMRRQQSSPLLQTTSSPAPGAGGFQRSYSTTQRQHHPHLGGDSYDADQGLLSASYANMLQLPQRPHSPAHYAVPPQQQQHPQIHQQHASTPFGSTLRFDRAAMSIRERQPRYQPTSSPMQQQQQQQQQQQQQLQHTQLAAHLGGSYSSDSYPIYENPSRVISMRATQSQRSESPIYSNTTASSATLAVVPQHHHQGHLAVPSGSGGGSLSGSGRGGSSGSVRGASTSVQSLYVPPRTPPSAVAGAGGSANGSLQKVPSQQSLTEPEELPLPPGWATQYTLHGRKYYIDHNAHTTHWNHPLEREGLPVGWRRVVSKMHGTYYENQYTGQSQRQHPCLTSYYVYTTSAEPPKAIRPEASLYAPPTHTHNALVPANPYLLEEIPKWLAVYSEADSSKDHLLQFNMFSLPELEGFDSMLVRLFKQELGTIVGFYERYRRALILEKNRRAGQNQNQNQ
For B1, the “fold change of binding with Ras-MAPK activation against without” value was 3 fold.

B2: Myc:Wts (Myc-tagged Warts) (enzyme, Drosophila, UniProt Q9VA38 1-1105, looked up)
chain: MHPAGEKRGGRPNDKYTAEALESIKQDLTRFEVQNNHRNNQNYTPLRYTATNGRNDALTPDYHHAKQPMEPPPSASPAPDVVIPPPPAIVGQPGAGSISVSGVGVGVVGVANGRVPKMMTALMPNKLIRKPSIERDTASSHYLRCSPALDSGAGSSRSDSPHSHHTHQPSSRTVGNPGGNGGFSPSPSGFSEVAPPAPPPRNPTACSAATPPPPVPPTSQAYVKRRSPALNNRPPAIAPPTQRGNSPVITQNGLKNPQQQLTQQLKSLNLYPGGGSGAVVEPPPPYLIQGGAGGAAPPPPPPSYTASMQSRQSPTQSQQSDYRKSPSSGIYSATSAGSPSPITVSLPPAPLAKPQPRVYQARSQQPIIMQSVKSTQVQKPVLQTAVAPQSPSSASASNSPVHVLAAPPSYPQKSAAVVQQQQQAAAAAHQQQHQHQQSKPPTPTTPPLVGLNSKPNCLEPPSYAKSMQAKAATVVQQQQQQQQQQQQVQQQQVQQQQQQQQQQLQALRVLQAQAQRERDQRERDQRERERDQQKLANGNPGRQMLPPPPYQSNNNNNSEIKPPSCNNNNIQISNSNLATTPPIPPAKYNNNSSNTGANSSGGSNGSTGTTASSSTSCKKIKHASPIPERKKISKEKEEERKEFRIRQYSPQAFKFFMEQHIENVIKSYRQRTYRKNQLEKEMHKVGLPDQTQIEMRKMLNQKESNYIRLKRAKMDKSMFVKLKPIGVGAFGEVTLVSKIDTSNHLYAMKTLRKADVLKRNQVAHVKAERDILAEADNNWVVKLYYSFQDKDNLYFVMDYIPGGDLMSLLIKLGIFEEELARFYIAEVTCAVDSVHKMGFIHRDIKPDNILIDRDGHIKLTDFGLCTGFRWTHNSKYYQENGNHSRQDSMEPWEEYSENGPKPTVLERRRMRDHQRVLAHSLVGTPNYIAPEVLERSGYTQLCDYWSVGVILYEMLVGQPPFLANSPLETQQKVINWEKTLHIPPQAELSREATDLIRRLCASADKRLGKSVDEVKSHDFFKGIDFADMRKQKAPYIPEIKHPTDTSNFDPVDPEKLRSNDSTMSSGDDVDQNDRTFHGFFEFTFRRFFDDKQPPDMTDDQAPVYV
Take B2: the “fold change of binding with Ras-MAPK activation against without” value is 2 fold.
